According to patent US20030186868A1 (Regeneron, published 2003):
Bridge positions count the residues as written; N and C are the ends. Ends that are not written are not given here.

B1: P6V8 (peptide)
peptide: RRPKGRGKRRREKQRPCDKPRR
notes: synthetic; holds one free cysteine; also called P6V8 parent peptide

Assays:
[1] = molecular target: T1, human vascular endothelial growth factor receptor-2 (hVEGFR-2) (human, UniProt P35968 20-1356); assay: 125I-VEGF165 competition, whole COS-1 cells
T1 construct: whole, on cells; also called flk-1; FLK-1
T1 sequence (P35968 20-1356): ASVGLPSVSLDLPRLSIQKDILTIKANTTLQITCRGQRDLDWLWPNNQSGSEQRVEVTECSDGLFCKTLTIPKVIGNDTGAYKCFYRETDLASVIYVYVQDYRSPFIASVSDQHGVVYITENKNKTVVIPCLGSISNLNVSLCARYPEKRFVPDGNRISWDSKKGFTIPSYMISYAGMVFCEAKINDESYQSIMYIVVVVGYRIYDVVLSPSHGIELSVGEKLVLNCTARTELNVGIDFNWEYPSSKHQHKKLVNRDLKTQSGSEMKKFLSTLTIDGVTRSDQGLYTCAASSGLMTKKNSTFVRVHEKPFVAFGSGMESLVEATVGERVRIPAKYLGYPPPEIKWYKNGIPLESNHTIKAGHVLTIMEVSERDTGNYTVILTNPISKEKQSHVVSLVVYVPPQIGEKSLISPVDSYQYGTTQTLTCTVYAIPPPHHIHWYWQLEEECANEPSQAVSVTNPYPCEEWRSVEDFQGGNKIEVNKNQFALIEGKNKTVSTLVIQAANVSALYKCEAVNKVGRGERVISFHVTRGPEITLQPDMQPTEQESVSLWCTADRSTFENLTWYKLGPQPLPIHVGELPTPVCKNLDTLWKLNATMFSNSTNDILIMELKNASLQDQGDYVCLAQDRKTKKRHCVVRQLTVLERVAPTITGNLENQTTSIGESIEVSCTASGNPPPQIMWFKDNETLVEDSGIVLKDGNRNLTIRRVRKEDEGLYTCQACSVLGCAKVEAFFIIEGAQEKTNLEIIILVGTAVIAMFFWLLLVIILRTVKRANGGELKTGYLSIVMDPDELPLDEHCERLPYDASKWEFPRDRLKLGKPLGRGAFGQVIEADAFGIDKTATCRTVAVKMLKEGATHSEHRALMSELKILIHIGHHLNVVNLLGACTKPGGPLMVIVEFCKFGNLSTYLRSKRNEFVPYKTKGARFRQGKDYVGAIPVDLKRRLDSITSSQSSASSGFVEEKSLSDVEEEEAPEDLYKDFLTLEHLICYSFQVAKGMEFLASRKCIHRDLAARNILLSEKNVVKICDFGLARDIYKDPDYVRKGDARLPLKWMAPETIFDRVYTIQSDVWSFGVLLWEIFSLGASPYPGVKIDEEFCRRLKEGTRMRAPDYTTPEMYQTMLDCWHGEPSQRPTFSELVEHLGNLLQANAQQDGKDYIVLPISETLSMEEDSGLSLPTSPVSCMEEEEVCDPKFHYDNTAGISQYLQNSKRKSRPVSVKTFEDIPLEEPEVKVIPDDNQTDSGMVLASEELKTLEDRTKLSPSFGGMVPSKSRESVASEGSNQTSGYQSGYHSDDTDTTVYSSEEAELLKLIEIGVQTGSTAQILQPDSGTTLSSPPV
Method: (§1) Cells are plated the day before experimentation at 200,000 cells per well in twelve well tissue culture plates (VWR) in 1 ml of growth medium specific for each cell type. On the day of experimentation, the cells were pre-equilibrated at 4° C. for 30 to 60 minutes in binding buffer (0.2% BSA, Sigma; 25 mM Hepes, Gibco; MEM, Gibco). […] The binding reaction is allowed to reach equilibrium for four hours at 4° C. with gentle agitation.
(§2) Unbound ligand is then removed by quickly washing three times with 5 ml ice cold BSA-free binding buffer (MEM, Gibco, 25 mM Hepes, Gibco). Cells are lysed by the addition of 250 μl of RIPS Buffer (previously described), and the lysed cells are transferred to 12×75 mm test tubes and counted using a gamma counter. Generation of competition curves and IC₅₀ values are performed using the Prism software package (Graphpad Software Inc., San Diego, Calif.).

[2] = molecular target: T2, VEGFR-2/NP-1 co-receptor complex (cells co-expressing hVEGFR-2 and hNP-1) (human, UniProt P35968 20-1356; O14786 22-923); assay: 125I-VEGF165 (201 pM) competition, cells overexpressing VEGFR-2 and NP-1 (FIG. 7)
T2 construct: whole, on cells; All numbers printed for cells co-expressing both receptors are put on this molecule; also called R2 + NP1 Cells; VEGFR-2/NP-1 complex
T2 sequence (P35968 20-1356, chain 1 of 2): as the sequence (P35968 20-1356) above
T2 sequence (O14786 22-923, chain 2 of 2): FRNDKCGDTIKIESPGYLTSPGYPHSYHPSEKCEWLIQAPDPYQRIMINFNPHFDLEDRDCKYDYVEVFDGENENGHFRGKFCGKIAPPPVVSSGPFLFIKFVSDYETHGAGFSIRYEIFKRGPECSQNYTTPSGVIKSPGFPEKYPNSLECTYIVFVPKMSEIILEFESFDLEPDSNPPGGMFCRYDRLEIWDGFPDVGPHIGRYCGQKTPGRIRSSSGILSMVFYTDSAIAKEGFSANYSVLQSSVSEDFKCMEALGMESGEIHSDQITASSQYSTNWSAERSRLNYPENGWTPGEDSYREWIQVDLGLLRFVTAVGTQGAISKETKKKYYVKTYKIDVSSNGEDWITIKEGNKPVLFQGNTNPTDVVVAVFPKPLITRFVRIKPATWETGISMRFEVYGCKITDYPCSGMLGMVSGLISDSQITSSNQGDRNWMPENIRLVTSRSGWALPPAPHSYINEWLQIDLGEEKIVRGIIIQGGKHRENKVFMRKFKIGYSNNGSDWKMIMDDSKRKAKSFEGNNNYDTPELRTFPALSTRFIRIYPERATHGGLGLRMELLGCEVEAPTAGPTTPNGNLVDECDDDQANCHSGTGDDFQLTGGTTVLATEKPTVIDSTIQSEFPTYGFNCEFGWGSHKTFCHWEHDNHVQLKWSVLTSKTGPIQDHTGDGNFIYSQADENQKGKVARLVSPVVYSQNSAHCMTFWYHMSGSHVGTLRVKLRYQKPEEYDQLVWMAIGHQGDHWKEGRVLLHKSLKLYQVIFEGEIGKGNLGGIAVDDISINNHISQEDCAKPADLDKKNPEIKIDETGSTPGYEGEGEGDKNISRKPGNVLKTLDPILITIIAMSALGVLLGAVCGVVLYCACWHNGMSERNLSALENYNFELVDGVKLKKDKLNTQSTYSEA
Method: as §1, §2

[3] = molecular target: T2, VEGFR-2/NP-1 co-receptor complex (cells …); assay: 125I-VEGF165 competition, whole COS-1 cells
[4] = molecular target: T3, human Neuropilin-1 (hNP-1) (human, UniProt O14786 22-923); assay: 125I-VEGF165 competition, whole COS-1 cells
T3 construct: whole, on cells; also called hNeuropilin-1
T3 sequence (O14786 22-923): as the sequence (O14786 22-923, chain 2 of 2) above

[5] = molecular target: T3, human Neuropilin-1 (hNP-1); assay: 125I-VEGF165 competition, stable Balb/C 3T3 A31 cells
[6] = molecular target: human vascular endothelial growth factor receptor-2 (hVEGFR-2) (human) (UniProt P35968); assay: 125I-VEGF165 competition, whole COS-1 cells
Chain of human vascular endothelial growth factor receptor-2 (hVEGFR-2) (human) (P35968 20-1356): as the sequence (P35968 20-1356) above

Binder | binding result [1] | other results
AGRGARAAEKQAPSDKPRR [P6V8-3NCSA1, 5, 7, 8, 12] | no binding | –
RRPAAAGKRRREKQRPSDKPRR [AS-1] | no binding | –
RRPKGRGKRRREKQRP (also called P6 peptide; pp6) [P6] | – | IC50 [2]: 12200 nM
KGRGKRAAEAQAPSDKPRR [P6V8-3NCSA7, 8, 10, 12] | no binding | –
RPSDKPRR [V8CS] | no binding | –
CKGRGKRCREKQRPSDKPRR (disulfide 1-8, also called P6V8-3NCW1-7CC) [P6V8-3NCS1-7CC] | no binding | –
KGRGKRRRECQRPSCKPRR (disulfide 10-15) [P6V8-3NCSC13C18] | no binding | binding result [3]: binds; binding result [4]: binds
KGRGKRRREKQRPCDKPRR [P6V8-3N] | – | IC50 [5]: 254 nM
KGAGKARREKQRPSDKPRR [P6V8-3NCSA3A6] | no binding | –
AGRGKARREKQRPSDKPRR [P6V8-3NCSA1A6] | no binding | –
KGAGARRREKQRPSDKPRR [P6V8-3NCSA3A5] | no binding | –
AGRGARRREKQRPSDKPRR [P6V8-3NCSA1A5] | no binding | –
RRPKGRGKRRREKQRAAAKPRR [AS-4a] | – | relative affinity to lead peptide (IC50 peptide / IC50 P6V8CS) [6]: 1.9
CAGRGKRCREKQRPSDKPRR (disulfide 1-8, also called P6V8-3NCSA-1 7CCA1) [P6V8-3NCS1-7CCA1] | no binding | –
CAGRGARCREKQRPSDKPRR (disulfide 1-8) [P6V8-3NCS1-7CCA1A5] | no binding | –
CKGRGKRCREKQRPSDKPRR (disulfide 1-8; also: capped amino and carboxyl termini, caps not given here) [(cap)P6V8-3NCS1-7CC] | no binding | binding result [3]: no binding; binding result [4]: no binding
CKGRGARCREKQRPSDKPRR (disulfide 1-8) [P6V8-3NCS1-7CCA5] | no binding | –
B1 | – | binding result [4]: binds
KGRGKRAAEAQRPSDKPRR [P6V8-3NCSA7, 8, 10] | – | relative affinity (IC50 peptide / IC50 VEGF165) [6]: 110000
RRPKGRGKRRREKQRPDAVPRR (also called P6P7 peptide) [P6P7] | – | IC50 [2]: 1170 nM
